The values below come from publication PMC6978647.

Test [1] concerns the target aeBlue chromoprotein (Actinia equina). In words: SEC. For orientation: In gel filtration, larger molecules generally elute earlier.
For test [2] the target is unchanged. In words: SEC. The source holds these as a separate data set.

Like-named read-outs stand apart in the source and are kept apart here.

For orientation: stoichiometry N means the number of molecules, sites or subunits per partner or assembly. Turning to aeBlue chromoprotein (natural protein), the stoichiometry N in test [1] stood at 3.84 subunits; in test [2], 4.45 subunits.
